Measured values as given in patent US12099068B2, “Biomarkers for graft-versus-host disease” (Incyte Corporation, priority 2018, dated 2024).

System: plasma proteins
Test: Plasma proteins modulated between baseline and day 28 in responders (CR, VGPR, PR; n = 19), Example 6 (Table 13)
Type: in vivo, human
Details: plasma protein (OLINK NPX); responders (CR, VGPR, PR; n = 19); itacitinib 200 mg or 300 mg QD with corticosteroids; day 28 vs baseline
Experimental: Due to the limited sample size, steroid-naive (N=10) and steroid-refractory (N=18) patients were combined for further analysis. Broad proteomic analysis of over 1000 proteins was conducted by OLINK Proteomics (Watertown, MA) using a proximity extension assay as described by the manufacturer. Data are presented as normalized protein expression (NPX) in log 2 scale. Statistical differences were evaluated using unpaired and paired t tests, one-way […] (ANOVA), and Pearson Correlation. Significance was conferred when P<0.05.
Longitudinal differences in protein expression were analyzed by evaluating plasma samples from baseline/screening and day 28.

B1: EGLN1 (protein, UniProt Q9GZT9 2-426, looked up)
Egl nine homolog 1: ANDSGGPGGPSPSERDRQYCELCGKMENLLRCSRCRSSFYCCKEHQRQDWKKHKLVCQGSEGALGHGVGPHQHSGPAPPAAVPPPRAGAREPRKAAARRDNASGDAAKGKVKAKPPADPAAAASPCRAAAGGQGSAVAAEAEPGKEEPPARSSLFQEKANLYPPSNTPGDALSPGGGLRPNGQTKPLPALKLALEYIVPCMNKHGICVVDDFLGKETGQQIGDEVRALHDTGKFTDGQLVSQKSDSSKDIRGDKITWIEGKEPGCETIGLLMSSMDDLIRHCNGKLGSYKINGRTKAMVACYPGNGTGYVRHVDNPNGDGRCVTCIYYLNKDWDAKVSGGILRIFPEGKAQFADIEPKFDRLLFFWSDRRNPHEVQPAYATRYAITVWYFDADERARAKVKYLTGEKGVRVELNKPSDSVGKDVF
Q: Which “Fold Change, Decreased Expression from Baseline to Day 28” value (shortened to “Fold Change, Decreased Expression”) does the source give for B1 here?
A: −1.3184

B2: SNAP29 (protein, UniProt O95721 1-258, looked up)
Synaptosomal-associated …: MSAYPKSYNPFDDDGEDEGARPAPWRDARDLPDGPDAPADRQQYLRQEVLRRAEATAASTSRSLALMYESEKVGVASSEELARQRGVLERTEKMVDKMDQDLKISQKHINSIKSVFGGLVNYFKSKPVETPPEQNGTLTSQPNNRLKEAISTSKEQEAKYQASHPNLRKLDDTDPVPRGAGSAMSTDAYPKNPHLRAYHQKIDSNLDELSMGLGRLKDIALGMQTEIEEQDDILDRLTTKVDKLDVNIKSTERKVRQL
Q: How did the “Fold Change, Decreased Expression” value turn out when B2 was run?
A: −1.6325

B3: SIGLEC6 (protein, UniProt O43699 27-453, looked up)
Sialic acid-binding Ig-like …: QERRFQLEGPESLTVQEGLCVLVPCRLPTTLPASYYGYGYWFLEGADVPVATNDPDEEVQEETRGRFHLLWDPRRKNCSLSIRDARRRDNAAYFFRLKSKWMKYGYTSSKLSVRVMALTHRPNISIPGTLESGHPSNLTCSVPWVCEQGTPPIFSWMSAAPTSLGPRTTQSSVLTITPRPQDHSTNLTCQVTFPGAGVTMERTIQLNVSYAPQKVAISIFQGNSAAFKILQNTSSLPVLEGQALRLLCDADGNPPAHLSWFQGFPALNATPISNTGVLELPQVGSAEEGDFTCRAQHPLGSLQISLSLFVHWKPEGRAGGVLGAVWGASITTLVFLCVCFIFRVKTRRKKAAQPVQNTDDVNPVMVSGSRGHQHQFQTGIVSDHPAEAGPISEDEQELHYAVLHFHKVQPQEPKVTDTEYSEIKIHK
Q: With B3 as the molecule, how does the “Fold Change, Decreased Expression” value read?
A: −1.9024

B4: TNFRSF11A (protein, UniProt Q9Y6Q6 30-616, looked up)
Tumor necrosis factor …: IAPPCTSEKHYEHLGRCCNKCEPGKYMSSKCTTTSDSVCLPCGPDEYLDSWNEEDKCLLHKVCDTGKALVAVVAGNSTTPRRCACTAGYHWSQDCECCRRNTECAPGLGAQHPLQLNKDTVCKPCLAGYFSDAFSSTDKCRPWTNCTFLGKRVEHHGTEKSDAVCSSSLPARKPPNEPHVYLPGLIILLLFASVALVAAIIFGVCYRKKGKALTANLWHWINEACGRLSGDKESSGDSCVSTHTANFGQQGACEGVLLLTLEEKTFPEDMCYPDQGGVCQGTCVGGGPYAQGEDARMLSLVSKTEIEEDSFRQMPTEDEYMDRPSQPTDQLLFLTEPGSKSTPPFSEPLEVGENDSLSQCFTGTQSTVGSESCNCTEPLCRTDWTPMSSENYLQKEVDSGHCPHWAASPSPNWADVCTGCRNPPGEDCEPLVGSPKRGPLPQCAYGMGLPPEEEASRTEARDQPEDGADGRLPSSARAGAGSGSSPGGQSPASGNVTGNSNSTFISSGQVMNFKGDIIVVYVSQTSQEGAAAAAEPMGRPVQEETLARRDSFAGNGPRFPDPCGGPEGLREPEKASRPVQEQGGAKA
Q: How did the “Fold Change, Decreased Expression” value turn out when B4 was run?
A: −1.3519

B5: GCNT1 (protein, UniProt Q02742 1-428, looked up)
Beta-1,3-galactosyl-O-glycosyl …: MLRTLLRRRLFSYPTKYYFMVLVLSLITFSVLRIHQKPEFVSVRHLELAGENPSSDINCTKVLQGDVNEIQKVKLEILTVKFKKRPRWTPDDYINMTSDCSSFIKRRKYIVEPLSKEEAEFPIAYSIVVHHKIEMLDRLLRAIYMPQNFYCIHVDTKSEDSYLAAVMGIASCFSNVFVASRLESVVYASWSRVQADLNCMKDLYAMSANWKYLINLCGMDFPIKTNLEIVRKLKLLMGENNLETERMPSHKEERWKKRYEVVNGKLTNTGTVKMLPPLETPLFSGSAYFVVSREYVGYVLQNEKIQKLMEWAQDTYSPDEYLWATIQRIPEVPGSLPASHKYDLSDMQAVARFVKWQYFEGDVSKGAPYPPCDGVHVRSVCIFGAGDLNWMLRKHHLFANKFDVDVDLFAIQCLDEHLRHKALETLKH
Q: With B5 as the molecule, how does the “Fold Change, Decreased Expression” value read?
A: −1.3034

B6: SH2B3 (protein, UniProt Q9UQQ2 1-575, looked up)
SH2B adapter protein 3: MNGPALQPSSPSSAPSASPAAAPRGWSEFCELHAVAAARELARQYWLFAREHPQHAPLRAELVSLQFTDLFQRYFCREVRDGRAPGRDYRDTGRGPPAKAEASPEPGPGPAAPGLPKARSSEELAPPRPPGPCSFQHFRRSLRHIFRRRSAGELPAAHTAAAPGTPGEAAETPARPGLAKKFLPWSLAREPPPEALKEAVLRYSLADEASMDSGARWQRGRLALRRAPGPDGPDRVLELFDPPKSSRPKLQAACSSIQEVRWCTRLEMPDNLYTFVLKVKDRTDIIFEVGDEQQLNSWMAELSECTGRGLESTEAEMHIPSALEPSTSSSPRGSTDSLNQGASPGGLLDPACQKTDHFLSCYPWFHGPISRVKAAQLVQLQGPDAHGVFLVRQSETRRGEYVLTFNFQGIAKHLRLSLTERGQCRVQHLHFPSVVDMLHHFQRSPIPLECGAACDVRLSSYVVVVSQPPGSCNTVLFPFSLPHWDSESLPHWGSELGLPHLSSSGCPRGLSPEGLPGRSSPPEQIFHLVPSPEELANSLQHLEHEPVNRARDSDYEMDSSSRSHLRAIDNQYTPL
Q: For B6, which “Fold Change, Decreased Expression” value is on record?
A: −1.7273

B7: STK4 (protein, UniProt Q13043 1-487, looked up)
Serine/threonine-protein …: METVQLRNPPRRQLKKLDEDSLTKQPEEVFDVLEKLGEGSYGSVYKAIHKETGQIVAIKQVPVESDLQEIIKEISIMQQCDSPHVVKYYGSYFKNTDLWIVMEYCGAGSVSDIIRLRNKTLTEDEIATILQSTLKGLEYLHFMRKIHRDIKAGNILLNTEGHAKLADFGVAGQLTDTMAKRNTVIGTPFWMAPEVIQEIGYNCVADIWSLGITAIEMAEGKPPYADIHPMRAIFMIPTNPPPTFRKPELWSDNFTDFVKQCLVKSPEQRATATQLLQHPFVRSAKGVSILRDLINEAMDVKLKRQESQQREVDQDDEENSEEDEMDSGTMVRAVGDEMGTVRVASTMTDGANTMIEHDDTLPSQLGTMVINAEDEEEEGTMKRRDETMQPAKPSFLEYFEQKEKENQINSFGKSVPGPLKNSSDWKIPQDGDYEFLKSWTVEDLQKRLLALDPMMEQEIEEIRQKYQSKRQPILDAIEAKKRRQQNF
Q: With B7 as the molecule, how does the “Fold Change, Decreased Expression” value read?
A: −1.8393

B8: ESM-1 (protein, UniProt Q9NQ30 20-184, looked up)
Endothelial cell-specific …: WSNNYAVDCPQHCDSSECKSSPRCKRTVLDDCGCCRVCAAGRGETCYRTVSGMDGMKCGPGLRCQPSNGEDPFGEEFGICKDCPYGTFGMDCRETCNCQSGICDRGTGKCLKFPFFQYSVTKSSNRFVSLTEHDMASGDGNIVREEVVKENAAGSPVMRKWLNPR
Q: For B8, which “Fold Change, Decreased Expression” value is on record?
A: −1.4178

B9: IL-5R-alpha (protein, UniProt Q01344 21-420, looked up)
Interleukin-5 receptor …: DLLPDEKISLLPPVNFTIKVTGLAQVLLQWKPNPDQEQRNVNLEYQVKINAPKEDDYETRITESKCVTILHKGFSASVRTILQNDHSLLASSWASAELHAPPGSPGTSIVNLTCTTNTTEDNYSRLRSYQVSLHCTWLVGTDAPEDTQYFLYYRYGSWTEECQEYSKDTLGRNIACWFPRTFILSKGRDWLAVLVNGSSKHSAIRPFDQLFALHAIDQINPPLNVTAEIEGTRLSIQWEKPVSAFPIHCFDYEVKIHNTRNGYLQIEKLMTNAFISIIDDLSKYDVQVRAAVSSMCREAGLWSEWSQPIYVGNDEHKPLREWFVIVIMATICFILLILSLICKICHLWIKLFPPIPAPKSNIKDLFVTTNYEKAGSSETEIEVICYIEKPGVETLEDSVF
Q: With B9 as the molecule, how does the “Fold Change, Decreased Expression” value read?
A: −1.6599

B10: TYMP (protein, UniProt P19971 11-482, looked up)
Thymidine phosphorylase: APPAPGDFSGEGSQGLPDPSPEPKQLPELIRMKRDGGRLSEADIRGFVAAVVNGSAQGAQIGAMLMAIRLRGMDLEETSVLTQALAQSGQQLEWPEAWRQQLVDKHSTGGVGDKVSLVLAPALAACGCKVPMISGRGLGHTGGTLDKLESIPGFNVIQSPEQMQVLLDQAGCCIVGQSEQLVPADGILYAARDVTATVDSLPLITASILSKKLVEGLSALVVDVKFGGAAVFPNQEQARELAKTLVGVGASLGLRVAAALTAMDKPLGRCVGHALEVEEALLCMDGAGPPDLRDLVTTLGGALLWLSGHAGTQAQGAARVAAALDDGSALGRFERMLAAQGVDPGLARALCSGSPAERRQLLPRAREQEELLAPADGTVELVRALPLALVLHELGAGRSRAGEPLRLGVGAELLVDVGQRLRRGTPWLRVHRDGPALSGPQSRALQEALVLSDRAPFAAPSPFAELVLPPQQ
Q: Which “Fold Change, Decreased Expression” value does the source give for B10 here?
A: −1.7313

B11: gal-8 (protein, UniProt O00214 1-317, looked up)
Galectin-8: MMLSLNNLQNIIYNPVIPFVGTIPDQLDPGTLIVIRGHVPSDADRFQVDLQNGSSMKPRADVAFHFNPRFKRAGCIVCNTLINEKWGREEITYDTPFKREKSFEIVIMVLKDKFQVAVNGKHTLLYGHRIGPEKIDTLGIYGKVNIHSIGFSFSSDLQSTQASSLELTEISRENVPKSGTPQLRLPFAARLNTPMGPGRTVVVKGEVNANAKSFNVDLLAGKSKDIALHLNPRLNIKAFVRNSFLQESWGEEERNITSFPFSPGMYFEMIIYCDVREFKVAVNGVHSLEYKHRFKELSSIDTLEINGDIHLLEVRSW
Q: With B11 as the molecule, how does the “Fold Change, Decreased Expression” value read?
A: −1.3154

B12: CLEC4D (protein, UniProt Q8WXI8 1-215, looked up)
C-type lectin domain family 4 …: MGLEKPQSKLEGGMHPQLIPSVIAVVFILLLSVCFIASCLVTHHNFSRCKRGTGVHKLEHHAKLKCIKEKSELKSAEGSTWNCCPIDWRAFQSNCYFPLTDNKTWAESERNCSGMGAHLMTISTEAEQNFIIQFLDRRLSYFLGLRDENAKGQWRWVDQTPFNPRRVFWHKNEPDNSQGENCVVLVYNQDKWAWNDVPCNFEASRICKIPGTTLN
Q: Which “Fold Change, Decreased Expression” value does the source give for B12 here?
A: −1.7084
